Experimental data from the DeepSol protein solubility set.

Test: soluble on expression in E. coli; label from the status in PepcDB or PDB records

| Sequence | soluble on expression in E. coli |
| --- | --- |
| MGSDKIHHHHHHMMDRAAIRQQARFELARRDFFYYCHLMASDFYKPSRRYLVELCNDLQGFLSDNEHNVLVINEPPRHGKSRTAGMFVQWLLGNDNDKKIMTGSYNETLSTVFSKNVRNAIQETKADEDVVVFNDIFPDTHIKYGDAAMNLWSLEGGYNNYLATSPTGTATGFGADIIIVDDLIKNAEEANNATVLEKHWEWFTNTMLSRLEEGGKIIIIMTRWHSQDLAGKALIELPKSDYKVKHISMKAYDEATDTMLCDEVLSKQAYLQKTKTMGADIASANYQQEPIDIKGRLYSGFKTYVDKPTFKRISAYTDTADTGKDYLASYIYGVTMDNEAYILDVVFTKEPMEVTEPLLAQKLAEWQVNTCDIESNNGGRGFARNVERLTQDSYQNRYTVFNWFHQSQNKQARILTNTTWAIEHIYFPENWRHRWSELYQNLMSYQREGKNAHDDAADALTGVVEAINDKIRTKAKVKRKSLYGL | not soluble |
| AEHSHESTLVQAGERIHITAQGVSAIETIDTRTISDAWQYRHLVVQNRPLTEVLDELNRHRRGHILYDRAQLQGIDMAVVLPLDDTDRALQLLVDSLPMIRIRTLTPYLVLVDLAPA | not soluble |
| MGSDKIHHHHHHMYNEYQPSLLLAPYIDKYWEFKGNPDYGMKINILPDGCTDFIFTLGEVADIAEQESLIMQPYRSYFVGPMSRYSTLITYAKSIHMFGIRFLPCGLFRFMQLPLEELGNQRISTFESGGIFNDSLAERLCEQPYIQDKIRLIESFLTQALCTNNKIEKQISYAVDCINLSKGQLPIRSLVENVCLCQRHFERKFKHQTGYSPKEYSRIIKFKNAVDLLRSTSSNQLFSVAIEAGYYDTAHLSKEIKALSGNTPGSFLSLPVTEETTLTYLKL | not soluble |
| MQSFLQLVAHDLYAKIGNDLSRTVLVFPNKRANLFFNEHLAGESDQPIWSPAAMSISDLFRKLSVQKAGDPIRLVCELYKVFREETESQETLDDFYFWGELLISDFDDVDKNLVDANKLFSNLQDLKNLMDDYEFLDKEQEEAIQQFFQNFSIERRTVLKEKFISLWDKLGTIYHRYRENLAELGIAYEGMLYRNVIEQLDTTRLKYDKYIFVGFNVLNKVETKFFQLLQDADKAMFYWDYDLFYTKQIVKHEAGEFINRNLKLFPNELPESCFDTLRKPKNIRYISASTENAQARFLPEWVQSTLSTANEEKENAVVLCNEALLLPVLHSIPQEVENVNITMGFPLAQTPVYSFINAAMELQTNGYRTATGRFTYETVSAILKHPYTRQLSINAEPLERELTKTNRFYPLPSELKMDDFLIKLFTPRSGIKELCDYLTELIKDISLLYREESEYNDIFNQLYRESLFKSYTTINRLYSLIETGELNVRTDTLRRLVSKVLTASNIPFHGEPAIGMQVMGVLETRNLDFRNIILLSLNEGQLPKSGGDSSFIPYNLRKAFGMTTIEHKNAVYAYYFYRLIQRAENITLLYNTSSNGLNRGEESRFMLQLLVEGPHKITREYLEAGQSPQGTTDISIEKTPEVFERLRCSYDCSNPQSYILSPSALNAYLDCRLKFYYRYVARLKAPDEVSAEIDSALFGTIFHLSAQLAYTDLTANRKIIQKEDLERLLRNEVKLQNYVDLAFKQELFKVPADEKPEYNGVQLINSKVIVSYLKQLLRNDLQYAPFEMVAMEKPVAEKITIQTGQGPITLRLGGTIDRMDAKDTTLRIVDYKTGGSPKTPANIEQLFTPSETRPNYIFQTFLYAAIMSRQQSLKVAPSLLYIHRAASESYSPVIEMGEPRQPKIPVNNFAFFEDEFRERLQRLLKEIFDENEPFTQTEDTKKCAYCDFKAICKR | not soluble |
| MGSDKIHHHHHHMKVLQYFENPGLISRSGIGHAQRLQQEELSYTDIVLDTSPFSKDYDLIDVNTYGPKSLAMVAKARLQNRKVVYHAHSTYEDFRNSFIGSNFLSKPFKKHLIKAYRQADLIITPTPYAKSLLRSYGLKQPIVPISNGVRVSSYRRNKSKIIKFRQFLNLKENDKRKIIISVGLYFQRKGIMDFVELARRNPEHLFVWFGYTDLRIIPKKIRETVKKDHPDNCVFAGYITGDVLQGAYSGADLFLYPSYEETEGIVVLEALASSQKVLVRDIPVYNDWLHDGFDCYKASNLDEFDKRLNEILAGKVKNVSKAGHEVALKRDVSLIGPQLKKAYEEALSLPSQESR | not soluble |
| MSLILVYSTFPNEEKALEIGRKLLEKRLIACFNAFEIRSGYWWKGEIVQDKEWAAIFKTTEEKEKELYEELRKLHPYETPAIFTLKVENVLTEYMNWLRESVLEGGSHHHHHH | soluble |
| MNNFFKHTLETHTPQSMSKITSYIREDIKNSNIENGIVVVYCPHTTAGITINENADPDVVKDLIYGFEKVYPTNDHKYRHFEGNSHSHLKSSTVGVSQQLILHRGRLILGQWQDVYFCDFDGPRNRTFYVKILEGLEHHHHHH | not soluble |
| MSLNFEYIINSLLETIKTYNFFVDWEKIENNIKKIEKRLHILNYLIGKENFKEEFFELLKEYPEVITVFPILIAVRDNKITILNENMELETLEFKEKKYLTDEEIERYYKFFKETGLEDLLKNRKIKNLVDYVFGVEVGMDTNARKNRIGDLMENIVKKYIENLCKQNKNLDYIFQATKDKIKQKWGINLTLDKTNRKFDFAVFNKNTKKLYLIEVNFYSGGGSKLKATAGEYRSLNEFIKNNNNNVQFIWITDGKGWNTAKNPLKESFNSGVVILNLKMVKEGLLKEILTQEGHHHHHH | soluble |
| GSHMLEDPQRRIRRPFSVAEVEALVQAVEKLGTGRWRDVKLCAFEDADHRTYVDLKDKWKTLVHTAKISPQQRRGEPVPQELLNRVLNAHGYWTQQQMQQLQQNV | soluble |
| MSAIEVTADAASTWDWPLQHNDGVVKVHNTKEKFEVGLDVQFFTPKEIEVKVSGQELLIHCRHETRSDNHGTVAREINRAYKLPDDVDVSTVKSHLATRGVLTITASKKA | soluble |
| MKLAKRVAALTPSATLEITAKAQALKAEGHDVIGLGAGEPDFNTPEHIMDAAHKAMLEGHTKYTPTGGLQALKQEIVKKFTRDQGIAYDPSEIIVCNGAKHALYTLFQVLLDEGDEVIIPTPYWVSYPEQVKLAGGKPVYVEGLEGNEYKITAEQLREAITEKTKAVIINSPSNPTGMIYSKEELQQLGEVCLEHDILIVSDEIYEKLIYGGAEYTSIAQLSNALKEQTLIINGVSKSHSMTGWRIGYAAGNKQLIKAMTNLASHSTSNPTSIAQYGAIAAYAGSQEPVETMRQAFEERLNIIYDKLIQIPGFTCIKPQGAFYLFPNVKEAVALSGYETVDEWAKALLEEEKVALVPGTGFGAPNNVRLSYATSLEQVEKALERIHTFMKSKVQA | not soluble |
| MSLRAVIRVAFILMDNFSLMSFTAAMDALVTANLMGDAPIFDIVKIGLKGRVAMSDLGIAIPTDLDLSELRARHDLLLVVGGLRVDLKSTPCLRRKLFAAASAGTSLGGLWNGAYFLADARVMGGHTCAVHPDGRAMMADAFPDLRISDRSHVVDLERVTCAGASSSLRMMLEYIRVTKGSSLARAVEEILGCDEHEGHHHHHH | soluble |
| IGDMAPKANMGWYNSFSYKGFNLGMMLTARLGGLVVSNTQGVLDYYGVSKASADARDAGGVWINNGYVDAKEYYQTIGGSNGGLGQYYTYSATNVRLSELSFSYAFPKKWFNNKVGITAGFVAKNLWMIYCKAPFDPELTASTSSNFYQGVDYFMTPSTRNLGFNVKFQF | not soluble |
| MKLLVATTNEGKYREIKEILSEYGIEVLKPEEKLEVEETGCTFLENAYLKARAYYERYKIPALADDSGLIVEAISPYPGVYSSRFYDIDFGGREEVRTNKDEANIRKLLRLLENTENRKAKFVAFIVVYGGSWGIFAEGEVRGEITKEPRGDRGFGYDPVFVPEGYNKTMAELSPEEKNKISHRGRALRKLVHVLKNCEKAF | soluble |
| GGNLEEMNIDPDNATQTHPKLLLTQICMNAFKRGTDGMYATKKVIQADGESADQYYKWTRGSFGYYDNLRNVQKMGEEAERVNAPVYTALTKFFRAYYFYELTLRFGDIPYSQALKGEKEEIYTPEYDAQEDVFAGILQELREADEILANDASVIDGDIIYNGNSTQWRKLINSFRLKVLMTLSNHTTVGNINIASEFKNIATNSPLMNSLADNGQLVYLDQQGNRYPQFNAQWSGYYMDDTFIQRMRERRDPRLFIFSAQTNKGKTEGKPIDDFSSYEGGDPAAPYSDAIIKVSEGTISPINDRFRTDPIVEPTMLMGYAELQQILAEAVVRGWISGNAQTYYEKGIRASFSFYETHAKDYAGYLNENAVAQYLKEPLVDFTQASGTEEQIERIIMQKYLVTFYQGNWDSFYEQLRTGYPDFRRPAGTEIPKRWMYPQGEYDNNGTNVETAITRQFGAGNDKINQATWWQKKS | soluble |
